Assays:
[1] = molecular target: T1, flag-tagged cynomolgus monkey LILRB4 expressed on CHO-K1 cells (cynomolgus monkey); experiment: FACS, CHO-stable cells expressing cyno LILRB4
T1 construct: whole, on cells; also called cyno LILRB4

[2] = molecular target: T2, human LILRB4 expressed on cells (human, UniProt Q8NHJ6 22-448); experiment: FACS, CHO-stable cells expressing human LILRB4
T2 construct: whole, on cells; also called ILT3; CD85k

[3] = molecular target: T2, human LILRB4 expressed on cells; experiment: cell-based or functional assay
[4] = molecular target: T2, human LILRB4 expressed on cells; experiment: FACS (Geo MFI) on THP-1 cells; panel assigned to THP-1 by the order in legend paragraph 86
[5] = molecular target: T2, human LILRB4 expressed on cells; experiment: FACS (Geo MFI) on normal human monocytes; panel assigned to monocytes by the order in legend paragraph 86

EC50 [1]: 1.12 nM | EC50 [2]: 0.415 nM | EC50 (read off the curve) [4]: ~0.5 nM | EC50 (read off the curve) [5]: ~0.3 nM
B1: H7K3m5 (antibody, V domains shown)
VH: EVQLVESGGGLVQPGGSLRLSCAASGFSLSSSYWISWVRQAPGKGLEWIGSIDSGSVGITYYATWVKGRFTISRDNSKNTLYLQMNSLRAEDTAVYYCARHGDNWALDLWGQGTLVTVSS
VL: DIQMTQSPSTLSASVGDRVTITCRASQSISSWLAWYQQKPGKAPKLLIYKASTLASGVPSRFSGSGSGTEFTLTISSLQPDDFATYYCQHGYIRGDLDNVFGGGTKVEIK
notes: Full-length IgG; human IgG1 is used as its isotype control; Only variable regions are tied to the name; Wild type (fucosylated) form unless said otherwise; also called variant 9; K3m5 (N/S)
T-cell cytotoxicity against THP-1-GFP cells, mean EC50 (n=3) [3]: 0.208 nM

— US20230340114A1 (IMMUNE ONC THERAPEUTICS, published 2023)
